Source: patent US20100034738A1 (IMMUNOMEDICS, published 2010)
Changes are numbered by the printed parent chain. Names may count otherwise. One block for each molecule: values may come before it.

Key:
[1] = biological target: T1, CD20 (human B lymphocyte-restricted differentiation antigen, Bp35) (human) (UniProt P11836); test: flow cytometry, PE-labelled MAb dissociating from Raji cells, without competing veltuzumab-Fab'-NEM
T1 sequence (looked up): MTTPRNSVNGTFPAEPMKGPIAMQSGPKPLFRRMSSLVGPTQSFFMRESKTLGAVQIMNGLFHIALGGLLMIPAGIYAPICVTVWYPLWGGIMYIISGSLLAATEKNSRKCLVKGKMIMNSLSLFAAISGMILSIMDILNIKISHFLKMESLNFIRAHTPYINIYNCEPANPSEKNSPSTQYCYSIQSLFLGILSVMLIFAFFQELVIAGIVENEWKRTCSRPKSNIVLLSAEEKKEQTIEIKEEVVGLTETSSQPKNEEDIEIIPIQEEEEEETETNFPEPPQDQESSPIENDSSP

[2] = biological target: T1, CD20 (human B lymphocyte-restricted differentiation antigen, Bp35) (human); test: cell-based or functional assay
[3] = biological target: T2, CD20 (human B lymphocyte-restricted differentiation antigen, Bp35) (human, UniProt P11836 1-297); test: flow cytometry, dissociation of PE-labelled MAb from live Raji cells (exp 2) at 37 C with excess veltuzumab Fab'-NEM; % T=0 MFI against time, one-phase exponential decay fit [table, column Raji (exp 2)]
T2 construct: whole, on cells; Endogenous CD20 on lymphoma cell lines; also called cell-surface CD20
T2 sequence (looked up): T1 sequence (looked up)
Method: (§1) Cells (Daudi, Raji, or Ramos) in 0.5 mL of CM (phenol red-free RPMI 1640 media supplemented with 10% FBS) at 1×10⁶ cells/mL were incubated with 5 μg of each PE-labeled MAb at room temperature for 30 min, pelleted at 400×g, washed twice with CM, resuspended in 1.5 mL of CM, and split into two 0.75-mL aliquots. […] Subsequent measurements were taken at 30-min intervals. The percent maximal binding, which is the quotient of the MFI at T=X divided by that at T=0, was plotted against time, and the results analyzed by Prism software (GraphPad Software Inc., San Diego, Calif.) to yield the half-life or off-rates.

[4] = biological target: T2, CD20 (human B lymphocyte-restricted …); test: flow cytometry, dissociation of PE-labelled MAb from live Raji cells (exp 1) at 37 C with excess veltuzumab Fab'-NEM; % T=0 MFI against time, one-phase exponential decay fit [table, column Raji (exp 1)]
Method: (§2) FIG. 5. […] The off-rate was determined by non-linear regression (one phase exponential decay) and P-values were generated by F-test using GraphPad Prism software.
as §1

[5] = biological target: T2, CD20 (human B lymphocyte-restricted …); test: flow cytometry, PE-labelled MAb dissociating from Daudi, Ramos and Raji cells at 37 C with excess veltuzumab-Fab'-NEM
Method: as §1

[6] = biological target: T2, CD20 (human B lymphocyte-restricted …); test: direct cell-surface saturation binding of 125I-labelled MAb to Raji cells; non-linear regression, one-site binding model (Prism); one representative of three experiments
Method: FIG. 4. […] Bₘₐₓ and Kd were determined by non-linear regression analysis using a one-site binding model with Prism software.
(§3) Raji cells (5×10⁵) were incubated with radioiodinated MAbs in an assay volume of 225 μl, using tissue culture media as diluent, for 1 h at 37° C. or room temperature. Cells then were washed twice with PBS containing 1% horse serum, and cell pellets were counted in a gamma counter. The MAbs were titrated at a 2:3 serial dilution starting with approximately 2×10⁶ cpm/2 μg MAb/tube, run in triplicate. Non-specific binding was measured by including replicate unlabeled MAb.

[7] = biological target: T2, CD20 (human B lymphocyte-restricted …); test: flow cytometry off-rate on lymphoma cells, with or without a competitive binder (summary of Example 5)
Method: as §1

[8] = biological target: T2, CD20 (human B lymphocyte-restricted …); test: flow cytometry, PE-labelled MAb dissociating from Raji cells, without competing veltuzumab-Fab'-NEM
Method: as §1

[9] = biological target: T2, CD20 (human B lymphocyte-restricted …); test: flow cytometry, dissociation of PE-labelled MAb from live Daudi cells at 37 C with excess veltuzumab Fab'-NEM; % T=0 MFI against time, one-phase exponential decay fit [table, column Daudi]
Method: as §2, §1

[10] = biological target: anti-idiotype antibodies; test: binding of radioiodinated MAb to anti-idiotype antibodies
[11] = biological target: T2, CD20 (human B lymphocyte-restricted …); test: saturation binding of 125I-labelled MAb to Raji cells, nonlinear regression / Scatchard; apparent KD, replicate assays
Method: as §3

[12] = biological target: T2, CD20 (human B lymphocyte-restricted …); test: flow cytometry, dissociation of PE-labelled MAb from live Ramos cells at 37 C with excess veltuzumab Fab'-NEM; % T=0 MFI against time, one-phase exponential decay fit [table, column Ramos]
Method: as §2, §1

[13] = biological target: T2, CD20 (human B lymphocyte-restricted …); test: flow cytometry, PE-labelled MAb dissociating from Raji cells at 37 C with excess veltuzumab-Fab'-NEM
Method: as §1

- dissociation half-life [1]: 195 min
Molecule: 1F5, murine anti-CD20 monoclonal antibody

- ADCC (% lysis), Daudi targets, Donor 001 [2]: 47.5 % lysis
- ADCC (% lysis), Daudi targets, Donor 006 [2]: 24.2 % lysis
- ADCC (% lysis), Daudi targets, Donor 009 [2]: 33.4 % lysis
B1: V102Y, variant of hA20 with Val to Tyr at Kabat position 102 in the CDR3 of VH (antibody, name in Kabat numbering, V domains shown)
VH: QVQLQQSGAEVKKPGSSVKVSCKASGYTFTSYNMHWVKQAPGQGLEWIGAIYPGNGDTSYNQKFKGKATLTADESTNTAYMELSSLRSEDTAFYYCARSTYYGGDWYFDYWGQGTTVTVSS
VL: DIQLTQSPSSLSASVGDRVTMTCRASSSVSYIHWFQQKPGKAPKPWIYATSNLASGVPVRFSGSGSGTDYTFTISSLQPEDIATYYCQQWTSNPPTFGGGTKLEIK

- Dissociation Rates (T 1/2 Min) [3]: 61.8 min
- Dissociation Rates (T 1/2 Min) [4]: 59.1 min
- dissociation half-life, fold longer than rituximab [5]: 2.7 fold
- Kd [6]: 10.8 nM
- off-rate, fold slower than rituximab or D101N [7]: ~2.5 fold
- dissociation half-life [8]: 281 min
- Dissociation Rates (T 1/2 Min) [9]: 54.4 min
- immunoreactivity [10]: > 90%
- Kd [11]: 6.23 to 12 nM
- Dissociation Rates (T 1/2 Min) [12]: 57 min
B2: veltuzumab (hA20), humanized anti-CD20 antibody (antibody, V domains shown)
VH: B1 VH with Y110V
VL: B1 VL
notes: It was 125I-labelled in the Scatchard assay and PE-labelled (Zenon kit) in the off-rate assay; also called v-mab; Vmab

- ADCC (% lysis), Daudi targets, Donor 001 [2]: 58.3 % lysis
- ADCC (% lysis), Daudi targets, Donor 006 [2]: 31.5 % lysis
- ADCC (% lysis), Daudi targets, Donor 009 [2]: 54.5 % lysis
B3: YDE, Fc variant of V102Y with S239D and I332E in the CH2 domain (antibody, name in Kabat numbering, V domains shown)
VH: B1 VH
VL: B1 VL

- Dissociation Rates (T 1/2 Min) [3]: 9.4 min
- off-rate, fold faster than rituximab [13]: 2 fold
- off-rate, fold faster than veltuzumab [13]: 6 fold
- dissociation half-life [8]: 42 min
B4: D101N, mutant of veltuzumab with Asp to Asn at Kabat position 101 in CDRH3 (antibody, name in Kabat numbering, V domains shown)
VH: B1 VH with D109N, Y110V
VL: B1 VL
notes: Same CDRs as rituximab and identical FRs to veltuzumab; also called D101N-hA20

- Dissociation Rates (T 1/2 Min) [3]: 21.4 min
- Dissociation Rates (T 1/2 Min) [4]: 24.3 min
- Kd [6]: 8.62 nM
- dissociation half-life [8]: 94 min
- Dissociation Rates (T 1/2 Min) [9]: 20.1 min
- Kd [11]: 6.7 to 8.63 nM
- Dissociation Rates (T 1/2 Min) [12]: 19 min
B5: rituximab (chimeric anti-CD20, c2B8) (antibody, V domains shown)
VH: QVQLQQPGAELVKPGASVKMSCKASGYTFTSYNMHWVKQTPGRGLEWIGAIYPGNGDTSYNQKFKGKATLTADKSSSTAYMQLSSLTSEDSAVYYCARSTYYGGDWYFNVWGQGTTVTVSS
VL: QIVLSQSPAILSASPGEKVTMTCRASSSVSYIHWFQQKPGSSPKPWIYATSNLASGVPVRFSGSGSGTSYSLTISRVEAEDAATYYCQQWTSNPPTFGGGTK
notes: Commercial chimeric antibody; also called IDEC-c2B8; Rmab

- Dissociation Rates (T 1/2 Min) [4]: 62 min
- off-rate, fold slower than rituximab or D101N [7]: ~2.5 fold
- Dissociation Rates (T 1/2 Min) [9]: 58.8 min
- Dissociation Rates (T 1/2 Min) [12]: 54.8 min
B6: cA20, chimeric anti-CD20 antibody (antibody, V domains shown)
VH: B5 VH with N109D
VL: DIQLTQSPAILSASPGEKVTMTCRASSSVSYIHWFQQKPGSSPKPWIYATSNLASGVPVRFSGSGSGTSYSLTISRVEAEDAATYYCQQWTSNPPTFGGGTKLEIK
